Test results from the supplement of paper PMC9170038.

Test system: MS2 coat protein
Assay: apparent KD of MS2 coat protein; higher = weaker reporter binding
Conditions: Eterna round: R107
How it was run: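 Titration buffer: 100 mM Tris-HCl pH 7.5, 80 mM KCl, 4 mM MgCl2, without or with constant ligand. Designed RNA switches transcribed on-chip from Illumina sequencing clusters received SNAP-549-labelled MS2 coat protein in twofold steps from 0.7 or 1.5 nM to 3 µM. Apparent KD is the median per design of fits to normalised cluster binding curves.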

[1] = input ligand: theophylline 20 uM
[2] = input ligand: theophylline 2 mM
[3] = input ligand: tryptophan 2.4 mM

| Sequence | apparent KD of MS2 coat protein (input ligand: arginine 13.2 mM) | apparent KD of MS2 coat protein (input ligand: none) | apparent KD of MS2 coat protein [1] | apparent KD of MS2 coat protein [2] | apparent KD of MS2 coat protein [3] |
| --- | --- | --- | --- | --- | --- |
| GGACUAACCAGAAGGAGCGACACAAGCAGAAACUGCAAUCCUCCGCACGAGGAUCACCCGUGUCAGGUAGGUCGCUGGUUAGUCG [ArgBX 28] | 57.5 nM | 63.7 nM | 96.8 nM | 96.8 nM | 67.4 nM |
| GGACUAACCUGAAGGAGCGGCGCGCAGAAACUGCAAAUUCCUCCACACGAGGAUCACCCGUGUCAGGUAGGUCGCAGGUUAGUCG [ArgBX 28] | 11.5 nM | 12.1 nM | 16.6 nM | 12.6 nM | 12.7 nM |
| GGAGCUACGUCGGCCGCCACUAGCGGAUAUUACGUGUACAUGAGGAUCACCCAUGUAAUACGGUUUAGGACCGGGACGUAGCUCC [Lizard] | 15.6 nM | – | 22.4 nM | 20.6 nM | – |
| GGAGCUACGUCGGCCGCCACUAGCGGGUAUUGCGUGUACAUGAGGAUCACCCAUGUAAUACGGCCUAGGACCGGGACGUAGCUCC [Raven] | 12.1 nM | – | 19.1 nM | 14.5 nM | 13.8 nM |
| GGAUAGGACAGAAGGAGCGUGAGAUGCAAAGCUUCAUUCCUCACAUGAGGAUCACCCAUGUCACAGGUAGGUCGCUGUCCUAUCG [#19 Exclusion - Arginine B] | 78.6 nM | 102 nM | 106 nM | 111 nM | 78.9 nM |
| GGCACGUACGGAAGGAGCGACUGUUCAACGUGGGUACAUGAGGAUCACCCAUGUCUCCGCAGUCAGGUAGGUCGCCGUACGUGCC [EAB NP+V+V2 #20] | 15 nM | 12.2 nM | 19.8 nM | 13.2 nM | 10.7 nM |
| GGCCAUGGAAACAUGGCGGCGGCGUAUGCGCGAGGACCGGUACGGCCGCCACUCGGGCGACAUGAGGAUCACCCAUGUUCCUCAU [ETA NP+V+V2 #25] | 127 nM | – | 243 nM | 275 nM | – |
| GGCGCGAGCCAACAUGAGGAUCACCCAUGUCGAGGACCGGUACGGCCGCCACUCGAACGAGUGAAGCGCGCGCGCGCGCGCGCGC [Uaa] | 32.4 nM | 61.5 nM | 106 nM | 68.8 nM | 167 nM |
| GGCGCUGCGUCGGCCGCCACUAGUGGGUAAUGGGUGUACAUGAGGAUCACCCAUGUAUUUUGGCCUAGGACCGGGACGUGGCGCC [Oxen] | 81.9 nM | – | 455 nM | 570 nM | – |
| GGGACACCGGGAAGGAGCGCAUCCAAACCACACAUGAGGAUCACCCAUGUAUAAAUAUGCAUGCAGGUAGGUCGCCCGAUGUCUC [Anrearradi] | 60.9 nM | 90.7 nM | 121 nM | 120 nM | 110 nM |
| GGGACAUCGGGAAGGAGCGCAUCCAAACCACACAUGAGGAUCACCCAUGUAUAAAUAUGCAUGCAGGUAGGUCGCCCGGUGUCUC [Ersoatus] | 79.5 nM | 104 nM | 131 nM | 117 nM | 121 nM |
| GGGAGAUGAAAAGAUUGAGCUAAAACAGAAGGAGCGUGAAUUAACACAGGUAGGUCGCUGACAACAUGAGGAUCACCCAUGUAUU [Same State Arginine A GF4] | 24.9 nM | 19.6 nM | 30.4 nM | 26.5 nM | 21.4 nM |
| GGGCCUAUCUGAAGGAGCGACAUGAGGAUCACCCAUGUCUCCCGUUAUGGGAGUUCUUUAGGUCAGGUAGGUCGCAGGUAGGGCC [#1 Exclusion - Arginine B Attempt #5 (Inspired by Omei)] | 12.2 nM | 14.7 nM | 19 nM | 15.2 nM | 15 nM |
| GGGCGAGUGGAGCGGCGUGCUCCGCUCCGUCGAGGACCGGUACGGCCGCCACUCGACAUGAGGAUCACCCAUGUGCGAGCUCGCG [#1 Exclusion - Tryptophan A Attempt #13 (HarryS)] | 7.39 nM | 17.6 nM | 27.1 nM | 58.6 nM | 180 nM |
| GGGCGCGUGGACUGGCGUGCUCCGCUCCGUCGAGGACCGGUACGGCCGCCACUCGACAUGAGGAUCACCCAUGUGUGAGCUCGCG [#1 Exclusion - Tryptophan A Attempt #17 (HarryS)] | 62.9 nM | – | 229 nM | 259 nM | – |
| GGGUACAUCGCGGCCGCCACUUAUGUAAAUACAUGAGGAUCACCCAUGUCGAUGGAGACAUCGGAAAGGACCGGGUGAUGUACCG | 130 nM | – | 271 nM | 262 nM | – |

| Sequence | apparent KD of MS2 coat protein (input ligand: arginine 13.2 mM) | apparent KD of MS2 coat protein (input ligand: none) | apparent KD of MS2 coat protein [1] | apparent KD of MS2 coat protein [2] | apparent KD of MS2 coat protein [3] |
| --- | --- | --- | --- | --- | --- |
| GGGUACAUCGCGGCCGCCACUUGUGUAAAUACAUGAGGAUCACCCAUGUCGAUGGAGACAUCGGAGAGGACCGGGUGAUGUACCG | 70.7 nM | 80 nM | 122 nM | 96.5 nM | 40.8 nM |
| GGGUACAUCGCGGCCGCCACUUGUGUAAAUACAUGAGGAUCACCCAUGUCGAUGGAGACAUCGGGAAGGACCGGGUGAUGUACCG | 218 nM | 342 nM | 802 nM | 1200 nM | 650 nM |
| GGGUGGUAGGCGGCCGCCACUGAUUUUCAUUCCUAGAUGACAUGAGGAUCACCCAUGUUUAUGGGCAGGACCGGGCCUGCUGUGG [aaaV] | 38.4 nM | – | 64.1 nM | 79.9 nM | – |
| GGUAGACGGACGGCCGCCACUCACAUGAGGAUCACCCAUGUAUAGUUGGUAAUCUGGGUUCAGGAGAGGACCGGGUCCUUGUCAG [theeternabot_exclusion_MS2_Trp_B_43] | 34.3 nM | 18.4 nM | 23.2 nM | 24.3 nM | 23.3 nM |
| GGUAUAUAGGCGGCCGCCACUGAUUUUCAUAUAUAUAUAACAUGAGGAUCACCCAUGUAGAUAUACAGGACCGGGCCUAUAUAUU [aaaC] | 16.1 nM | – | 17.7 nM | 16.4 nM | – |
| GGUUACUCUACGGCCGCCACUGUAAAGUAAAGAUUACUGUACAUGACAUGAGGAUCACCCAUGUACAGGACCGGGUAGUGUAACC [Tryptophan B 15] | 32.2 nM | – | 46.3 nM | 35.5 nM | – |
| GGUUACUCUACGGCCGCCACUGUAAUGUAAAGAUACCUGUACAUGACAUGAGGAUCACCCAUGUACAGGACCGGGUAGUGUAACC [Tryptophan B 17] | 144 nM | – | 312 nM | 343 nM | – |
| GGUUAGGUUUUUGAUACCAGCUAUUGGUGUCAUCUGAGGAUCACCCAGGUCUUGUGUUUUAGCCCUUGGCAGCAAAAGUUUAGUC [SSTheo B #28] | 72.6 nM | 88.4 nM | 118 nM | 94.1 nM | 108 nM |
| GGUUGAUGACAUGAGGAUCACCCAUGUAGGCGAGGACCGGUACGGCCGCCACUCGACAUGAGGAUCACCCAUGUCGGCGUCCGUG | 14.3 nM | – | 19.9 nM | 18 nM | – |
| GGUUGGUGUAGAGAUAUAUUGAUUACUGAAGGAGCGGGACGAAACCCAGGUAGGUCGCAGAGAUCCACAUGAGGAUCACCCAUGU [!0.M] | 31.6 nM | 46.1 nM | 46.6 nM | 61.4 nM | 33.4 nM |
| GUACAUGAGGAUCACCCAUGUAUAGUUGAAGGAGCGACCAGAGGGUCAGGUAGGUCGCAGCACAUGGCGUAAACCCGUGUAUGCC [#1 Exclusion - Arginine A Attempt #23 (Inspired by Pi)] | 20.4 nM | 21 nM | 27.9 nM | 24.9 nM | 21.2 nM |
| GUAUACAUGAGGAUCACCCAUGUACCAGAAGGAGCGCUGGAAACAGCAGGUAGGUCGCUGGUAGGUCCUCUAUCUAGACGUUCUU [EAA NP+V+V2 #6] | 40.5 nM | 193 nM | 167 nM | 157 nM | 110 nM |
| GUAUAUUAUAGAAGGAGCGUCGAAAAUGGGUAAACAUGAGGAUCACCCAUGUAAAGGGAACGACAGGUAGGUCGCUAUAAUAUAC [AstromonsSSArgB#14] | 154 nM | 218 nM | 233 nM | 311 nM | 220 nM |
| GUCCGACAUGAGGAUCACCCAUGUACUGAAGGAGCGGACAAAUGUCCAGGUAGGUCGCAGCUAUAUGGUGUGGACCGAUCCGGAC [Ustius] | 19 nM | 22 nM | 27.2 nM | 23.6 nM | 22.4 nM |
| GUCGUGGUCGGAAGGAGCGACAUGAGGAUCACCCAUGUCUCCCGUUAUGGGAGUUCCUUAGGUCAGGUAGGUCGCCGACUGCGGC [#1 Exclusion - Arginine B Attempt #23 (Inspired by Omei)] | 54.7 nM | 199 nM | 170 nM | 276 nM | 181 nM |
